The record followed here is article PMC2788227 (PLoS ONE, 2009).

Usually stoichiometry N stands for the number of molecules, sites or subunits per partner or assembly.

The data set deals with the molecule itself. Nature of the data set: SEC.

B1: Francisella tularensis subsp. holarctica LVS 1-deoxy-D-xylulose 5-phosphate reductoisomerase (MEP sy (enzyme)
chain: MFKKTKITILGATGSIGDSTLAVIRETNDFEVFALTAFSNVEKLAELCQEFKPKFAVVPDLSKKQKLQSLVTDVEVLVGESGLEKVSSLAEIDIVMSAIVGIAGLKPTFAAAKAGKKILLANKESLVTAGHLLIDEVVKNNAQLIPVDSEHNAIFQCIDNHDKKCLPEIDKIILTASGGPFRDKQLHELTDVTPEQACNHPNWQMGRKISVDSSTMVNKALEVIEAYWLFSVSADKIGVLIHPQSVTHSIVRYVDGSYIAQLGVPDMKTPIANAMYYPKRGSVNVESLDFTKYQLTFREACFERFEALKIVFNNLQNKNYAANIVFNAANEELVAAFLNKKIKYLEIIEVNKKVTKELNFENPKNIEEVFEIDRKTREYVDSVLG
As to B1, the “stoichiometry N” value was 2.
